PMC7954794, “Protein context shapes the specificity of SH3 domain-mediated interactions in vivo” (Nature Communications, 2021)

B1: YSC84 (protein, UniProt P32793 1-468, looked up)
Protein YSC84: MGINNPIPRSLKSETKKAAKVLRSFVKPNQVFGADQVIPPYVLKRAKGLAIITVLKAGFLFSGRAGSGVIVARLKDGTWSAPSAIAMAGAGAGGMVGVELTDFVFILNSEEAVRSFSEFGTITLGGNVSVSAGPLGRSAEAAASASTGGVSAVFAYSKSKGLFAGVSVEGSAILERREANRKFYGDNCTSKMILSGRVKVPPAADPLLRILESRAFNFTRHDHDDNASGDDFYDDGQYSDNTSHYYDDIPDSFDSTDESSTRPNTRSSRRRGMSLGSRSRYDDDYDDDGYGRGRGYGDFDSEDEDYDYGRSPNRNSSRNRGPQIDRGTKPRANTRWEDDLYDRDTEYSRPNHSGRDYDNTRGNRRGYGRERGYSLGHGPTHPSNMSNVDDLSHKMSKTGLGNESTATNSATPTAVALYNFAGEQPGDLAFKKGDVITILKKSDSQNDWWTGRTNGKEGIFPANYVRVS
B2: BOI1 (protein, UniProt P38041 1-980, looked up)
BEM1-interacting protein 1: MSLEGNTLGKGAKSFPLYIAVNQYSKRMEDELNMKPGDKIKVITDDGEYNDGWYYGRNLRTKEEGLYPAVFTKRIAIEKPENLHKSPTQESGNSGVKYGNLNDSASNIGKVSSHQQENRYTSLKSTMSDIDKALEELRSGSVEQEVSKSPTRVPEVSTPQLQDEQTLIQEKTRNEENTTHDSLFSSTADLNLSSESLKNISKSNISTKSLEPSSESVRQLDLKMAKSWSPEEVTDYFSLVGFDQSTCNKFKEHQVSGKILLELELEHLKELEINSFGIRFQIFKEIRNIKSAIDSSSNKLDADYSTFAFENQAAQLMPAATVNRDEIQQQISSKCNKLSSESSDRKSSSVTTELQRPSSVVVNPNFKLHDPAEQILDMTEVPNLFADKDIFESPGRAPKPPSYPSPVQPPQSPSFNNRYTNNNARFPPQTTYPPKNKNPTVYSNGLIPNSSTSSDNSTGKFKFPAMNGHDSNSRKTTLTSATIPSINTVNTDESLPAISNISSNATSHHPNRNSVVYNNHKRTESGSSFVDLFNRISMLSPVKSSFDEEETKQPSKASRAVFDSARRKSSYGHSRDASLSEMKKHRRNSSILSFFSSKSQSNPTSPTKQTFTIDPAKMTSHSRSQSNSYSHARSQSYSHSRKHSLVTSPLKTSLSPINSKSNIALAHSETPTSSNNKEAVSQPSEGKHKHKHKHKSKHKHKNSSSKDGSSEEKSKKKLFSSTKESFVGSKEFKRSPSELTQKSTKSILPRSNAKKQQTSAFTEGIRSITAKESMQTADCSGWMSKKGTGAMGTWKQRFFTLHGTRLSYFTNTNDEKERGLIDITAHRVLPASDDDRLISLYAASLGKGKYCFKLVPPQPGSKKGLTFTEPRVHYFAVENKSEMKAWLSAIIKATIDIDTSVPVISSYATPTIPLSKAQTLLEEARLQTQLRDAEEEEGRDQFGWDDTQNKRNSNYPIEQDQFETSDYLESSAFEYPGGRL

Tested on: Abp1 PPIs
Assay: DHFR-PCA of Abp1 SH3-swapped baits (Fig. 2B-D, S2C, S2F);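 for Protein-protein interaction distance between Abp1 SH3-swapped baits, to ABP1: Euclidean distance between DHFR-PCA score profiles of the baits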;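 for Protein-protein interaction distance between Abp1 SH3-swapped baits, to BEM1-2: Euclidean distance between DHFR-PCA score profiles of the baits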;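 for Protein-protein interaction distance between Abp1 SH3-swapped baits, to BOI1: Euclidean distance between DHFR-PCA score profiles of the baits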;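 for Protein-protein interaction distance between Abp1 SH3-swapped baits, to BZZ1-1: Euclidean distance between DHFR-PCA score profiles of the baits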
Assay type: cell-based, Saccharomyces cerevisiae
Conditions: for Protein-protein interaction distance between Abp1 SH3-swapped baits, to ABP1: Abp1 bait with swapped SH3, distance to bait with ABP1 SH3; for Protein-protein interaction distance between Abp1 SH3-swapped baits, to ABP1 / Protein-protein interaction distance between Abp1 SH3-swapped baits, to BBC1 / Protein-protein interaction distance between Abp1 SH3-swapped baits, to BEM1-1 / Protein-protein interaction distance between Abp1 SH3-swapped baits, to BEM1-2 / Protein-protein interaction distance between Abp1 SH3-swapped baits, to BOI1 / Protein-protein interaction distance between Abp1 SH3-swapped baits, to BOI2 / Protein-protein interaction distance between Abp1 SH3-swapped baits, to BUD14 / Protein-protein interaction distance between Abp1 SH3-swapped baits, to BZZ1-1 / Protein-protein interaction distance between Abp1 SH3-swapped baits, to BZZ1-2 / Protein-protein interaction distance between Abp1 SH3-swapped baits, to CDC25 / Protein-protein interaction distance between Abp1 SH3-swapped baits, to CTTN / Protein-protein interaction distance between Abp1 SH3-swapped baits, to CYK3 / Protein-protein interaction distance between Abp1 SH3-swapped baits, to DBNL / Protein-protein interaction distance between Abp1 SH3-swapped baits, to FUS1 / Protein-protein interaction distance between Abp1 SH3-swapped baits, to HCLS1 / Protein-protein interaction distance between Abp1 SH3-swapped baits, to HOF1 / Protein-protein interaction distance between Abp1 SH3-swapped baits, to HSE1 / Protein-protein interaction distance between Abp1 SH3-swapped baits, to LSB1 / Protein-protein interaction distance between Abp1 SH3-swapped baits, to LSB3 / Protein-protein interaction distance between Abp1 SH3-swapped baits, to MYO3 / Protein-protein interaction distance between Abp1 SH3-swapped baits, to MYO5 / Protein-protein interaction distance between Abp1 SH3-swapped baits, to NBP2 / Protein-protein interaction distance between Abp1 SH3-swapped baits, to PEX13 / Protein-protein interaction distance between Abp1 SH3-swapped baits, to PIN3 / Protein-protein interaction distance between Abp1 SH3-swapped baits, to RVS167 / Protein-protein interaction distance between Abp1 SH3-swapped baits, to SDC25 / Protein-protein interaction distance between Abp1 SH3-swapped baits, to SHO1 / Protein-protein interaction distance between Abp1 SH3-swapped baits, to SLA1-1 / Protein-protein interaction distance between Abp1 SH3-swapped baits, to SLA1-2 / Protein-protein interaction distance between Abp1 SH3-swapped baits, to SLA1-3 / Protein-protein interaction distance between Abp1 SH3-swapped baits, to YSC84: sheet Fig2C; for Protein-protein interaction distance between Abp1 SH3-swapped baits, to BBC1: distance to Abp1 bait with BBC1 SH3; for Protein-protein interaction distance between Abp1 SH3-swapped baits, to BEM1-1: distance to Abp1 bait with BEM1-1 SH3; for Protein-protein interaction distance between Abp1 SH3-swapped baits, to BEM1-2: distance to Abp1 bait with BEM1-2 SH3; for Protein-protein interaction distance between Abp1 SH3-swapped baits, to BOI1: distance to Abp1 bait with BOI1 SH3; for Protein-protein interaction distance between Abp1 SH3-swapped baits, to BOI2: distance to Abp1 bait with BOI2 SH3; for Protein-protein interaction distance between Abp1 SH3-swapped baits, to BUD14: distance to Abp1 bait with BUD14 SH3; for Protein-protein interaction distance between Abp1 SH3-swapped baits, to BZZ1-1: distance to Abp1 bait with BZZ1-1 SH3; for Protein-protein interaction distance between Abp1 SH3-swapped baits, to BZZ1-2: distance to Abp1 bait with BZZ1-2 SH3; for Protein-protein interaction distance between Abp1 SH3-swapped baits, to CDC25: distance to Abp1 bait with CDC25 SH3; for Protein-protein interaction distance between Abp1 SH3-swapped baits, to CTTN: distance to Abp1 bait with CTTN SH3; for Protein-protein interaction distance between Abp1 SH3-swapped baits, to CYK3: distance to Abp1 bait with CYK3 SH3; for Protein-protein interaction distance between Abp1 SH3-swapped baits, to DBNL: distance to Abp1 bait with DBNL SH3; for Protein-protein interaction distance between Abp1 SH3-swapped baits, to FUS1: distance to Abp1 bait with FUS1 SH3; for Protein-protein interaction distance between Abp1 SH3-swapped baits, to HCLS1: distance to Abp1 bait with HCLS1 SH3; for Protein-protein interaction distance between Abp1 SH3-swapped baits, to HOF1: distance to Abp1 bait with HOF1 SH3; for Protein-protein interaction distance between Abp1 SH3-swapped baits, to HSE1: distance to Abp1 bait with HSE1 SH3; for Protein-protein interaction distance between Abp1 SH3-swapped baits, to LSB1: distance to Abp1 bait with LSB1 SH3; for Protein-protein interaction distance between Abp1 SH3-swapped baits, to LSB3: distance to Abp1 bait with LSB3 SH3; for Protein-protein interaction distance between Abp1 SH3-swapped baits, to MYO3: distance to Abp1 bait with MYO3 SH3; for Protein-protein interaction distance between Abp1 SH3-swapped baits, to MYO5: distance to Abp1 bait with MYO5 SH3; for Protein-protein interaction distance between Abp1 SH3-swapped baits, to NBP2: distance to Abp1 bait with NBP2 SH3; for Protein-protein interaction distance between Abp1 SH3-swapped baits, to PEX13: distance to Abp1 bait with PEX13 SH3; for Protein-protein interaction distance between Abp1 SH3-swapped baits, to PIN3: distance to Abp1 bait with PIN3 SH3; for Protein-protein interaction distance between Abp1 SH3-swapped baits, to RVS167: distance to Abp1 bait with RVS167 SH3; for Protein-protein interaction distance between Abp1 SH3-swapped baits, to SDC25: distance to Abp1 bait with SDC25 SH3; for Protein-protein interaction distance between Abp1 SH3-swapped baits, to SHO1: distance to Abp1 bait with SHO1 SH3; for Protein-protein interaction distance between Abp1 SH3-swapped baits, to SLA1-1: distance to Abp1 bait with SLA1-1 SH3; for Protein-protein interaction distance between Abp1 SH3-swapped baits, to SLA1-2: distance to Abp1 bait with SLA1-2 SH3; for Protein-protein interaction distance between Abp1 SH3-swapped baits, to SLA1-3: distance to Abp1 bait with SLA1-3 SH3; for Protein-protein interaction distance between Abp1 SH3-swapped baits, to YSC84: distance to Abp1 bait with YSC84 SH3
Procedure, shortened: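 Yeast DHFR-PCA in which Abp1 baits, carrying their SH3 replaced by CRISPR–Cas9 with one of 27 yeast SH3s or human CTTN, HCLS1 or DBNL SH3s, were mated against 575 SH3-associated DHFR F[3] preys plus 40 negative controls. Four tests were run per PPI. Diploids were selected twice (48 h, 30 °C), then grown 4 days on PCA selection media.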

[1] = number of PPIs, difference, Abp1 SH3-swapped with the listed SH3, Fig2D,S2F

Molecule	Protein-protein interaction distance between Abp1 SH3-swapped baits, to ABP1	Protein-protein interaction distance between Abp1 SH3-swapped baits, to BBC1	Protein-protein interaction distance between Abp1 SH3-swapped baits, to BEM1-1	Protein-protein interaction distance between Abp1 SH3-swapped baits, to BEM1-2	Protein-protein interaction distance between Abp1 SH3-swapped baits, to BOI1	Protein-protein interaction distance between Abp1 SH3-swapped baits, to BOI2	Protein-protein interaction distance between Abp1 SH3-swapped baits, to BUD14	Protein-protein interaction distance between Abp1 SH3-swapped baits, to BZZ1-1	Protein-protein interaction distance between Abp1 SH3-swapped baits, to BZZ1-2	Protein-protein interaction distance between Abp1 SH3-swapped baits, to CDC25	Protein-protein interaction distance between Abp1 SH3-swapped baits, to CTTN	Protein-protein interaction distance between Abp1 SH3-swapped baits, to CYK3	Protein-protein interaction distance between Abp1 SH3-swapped baits, to DBNL	Protein-protein interaction distance between Abp1 SH3-swapped baits, to FUS1	Protein-protein interaction distance between Abp1 SH3-swapped baits, to HCLS1	Protein-protein interaction distance between Abp1 SH3-swapped baits, to HOF1	Protein-protein interaction distance between Abp1 SH3-swapped baits, to HSE1	Protein-protein interaction distance between Abp1 SH3-swapped baits, to LSB1	Protein-protein interaction distance between Abp1 SH3-swapped baits, to LSB3	Protein-protein interaction distance between Abp1 SH3-swapped baits, to MYO3	further results
B1	13.97	14.14	19.6	36.26	16.61	20.04	22.52	11.3	16.58	30.76	17.19	31.42	11.44	23.88	11.3	34.92	12.83	3.911	3.425	9.995	Protein-protein interaction distance between Abp1 SH3-swapped baits, to MYO5: 8.128; Protein-protein interaction distance between Abp1 SH3-swapped baits, to NBP2: 21.76; Protein-protein interaction distance between Abp1 SH3-swapped baits, to PEX13: 7.848; Protein-protein interaction distance between Abp1 SH3-swapped baits, to PIN3: 5.862; Protein-protein interaction distance between Abp1 SH3-swapped baits, to RVS167: 8.283; Protein-protein interaction distance between Abp1 SH3-swapped baits, to SDC25: 36.86; Protein-protein interaction distance between Abp1 SH3-swapped baits, to SHO1: 12.33; Protein-protein interaction distance between Abp1 SH3-swapped baits, to SLA1-1: 33.18; Protein-protein interaction distance between Abp1 SH3-swapped baits, to SLA1-2: 24.17; Protein-protein interaction distance between Abp1 SH3-swapped baits, to SLA1-3: 6.014; Protein-protein interaction distance between Abp1 SH3-swapped baits, to YSC84: 0.00
B2	11.59	9.448	8.19	28.06	0.00	6.71	11.14	8.863	6.782	21	8.701	21.68	8.616	12.53	12.36	26.74	7.847	16.11	16.12	14.63	Protein-protein interaction distance between Abp1 SH3-swapped baits, to MYO5: 14.33; Protein-protein interaction distance between Abp1 SH3-swapped baits, to NBP2: 10.48; Protein-protein interaction distance between Abp1 SH3-swapped baits, to PEX13: 13.22; Protein-protein interaction distance between Abp1 SH3-swapped baits, to PIN3: 13.58; Protein-protein interaction distance between Abp1 SH3-swapped baits, to RVS167: 11.58; Protein-protein interaction distance between Abp1 SH3-swapped baits, to SDC25: 29.16; Protein-protein interaction distance between Abp1 SH3-swapped baits, to SHO1: 8.152; Protein-protein interaction distance between Abp1 SH3-swapped baits, to SLA1-1: 23.94; Protein-protein interaction distance between Abp1 SH3-swapped baits, to SLA1-2: 13.51; Protein-protein interaction distance between Abp1 SH3-swapped baits, to SLA1-3: 15.75; Protein-protein interaction distance between Abp1 SH3-swapped baits, to YSC84: 16.61; PPIs gained by Abp1 - SH3-dependent PPIs gained by Abp1 [1]: 1; SH3-dependent PPIs - SH3-dependent PPIs gained by Abp1 [1]: 2; SH3-dependent PPIs gained by Abp1 (number of PPIs, Abp1 SH3-swapped with the listed SH3, DHFR-PCA, Fig2D,S2F): 1
